# Experimental data: patent US20220372155A1 (LYVGEN BIOPHARMA, published 2022)
# Biological target: T1, human CD40 expressed on CHO cells (human, UniProt P25942 21-277)
# T1 construct: whole, on cells; also used for the reporter cells over-expressing human CD40; also called cellular CD40; CHO-CD40 cells
# Experiment: FACS, CHO cells
# T1 sequence (P25942 21-277): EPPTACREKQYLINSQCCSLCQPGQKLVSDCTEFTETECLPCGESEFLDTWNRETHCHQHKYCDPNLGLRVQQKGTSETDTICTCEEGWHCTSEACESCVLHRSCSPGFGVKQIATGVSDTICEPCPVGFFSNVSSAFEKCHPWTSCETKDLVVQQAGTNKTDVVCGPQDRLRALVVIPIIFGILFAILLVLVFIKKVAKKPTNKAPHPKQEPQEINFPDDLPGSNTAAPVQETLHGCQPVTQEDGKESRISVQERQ
row,Binder,binding result
1,"Ly809 (bispecific antibody, human IgG1, kappa, Ly383 HC (IgG1 mutated Fc)-Ly253 scFv VL-VH + Ly383 LC) heavy: not shown light: QIVLSQSPAILSTSPGEKVTMTCRASSSVSYMHWYQQKPGSSPKPWIYATSNLASGVPARFSGSRSGTSYSLTISRVEAEDAATYYCQQWSSNTLTFGGGTKLELKRTVAAPSVFIFPPSDEQLKSGTASVVCLLNNFYPREAKVQWKVDNALQSGNSQESVTEQDSKDSTYSLSSTLTLSKADYEKHKVYACEVTHQGLSSPVTKSFNRGEC",binds
2,"Ly810 (bispecific antibody, human IgG1, kappa, Ly383 HC (IgG1 mutated Fc)-Ly253 scFv VH-VL + Ly383 LC) heavy: not shown light: QIVLSQSPAILSTSPGEKVTMTCRASSSVSYMHWYQQKPGSSPKPWIYATSNLASGVPARFSGSRSGTSYSLTISRVEAEDAATYYCQQWSSNTLTFGGGTKLELKRTVAAPSVFIFPPSDEQLKSGTASVVCLLNNFYPREAKVQWKVDNALQSGNSQESVTEQDSKDSTYSLSSTLTLSKADYEKHKVYACEVTHQGLSSPVTKSFNRGEC",binds
3,"Ly813 (bispecific antibody, human IgG1, kappa, Ly387 HC (IgG1 mutated Fc)-Ly253 scFv VL-VH + Ly387 LC) heavy: not shown light: ENVLTQSPAIMSVSPGEKVTMTCRASSSVSSSYLHWYQQKSGASPKFWIYSTSNLASGVPARFSGSGSGTSYSLTISSVEAEDAATYYCQHYSGYPLTFGAGTKLELRRTVAAPSVFIFPPSDEQLKSGTASVVCLLNNFYPREAKVQWKVDNALQSGNSQESVTEQDSKDSTYSLSSTLTLSKADYEKHKVYACEVTHQGLSSPVTKSFNRGEC",binds
4,"Ly814 (bispecific antibody, human IgG1, kappa, Ly387 HC-Ly253 scFv VH-VL + Ly387 LC) heavy: not shown light: ENVLTQSPAIMSVSPGEKVTMTCRASSSVSSSYLHWYQQKSGASPKFWIYSTSNLASGVPARFSGSGSGTSYSLTISSVEAEDAATYYCQHYSGYPLTFGAGTKLELRRTVAAPSVFIFPPSDEQLKSGTASVVCLLNNFYPREAKVQWKVDNALQSGNSQESVTEQDSKDSTYSLSSTLTLSKADYEKHKVYACEVTHQGLSSPVTKSFNRGEC",binds
5,"Ly808 (bispecific antibody, human IgG1, kappa, Ly387 HC (IgG1 mutated Fc) + Ly387 LC-TM559 scFv VH-VL) heavy: QVQLQQPGAELVKPGASVKLSCKASGYTFTSYWMHWVKQRPGQGLEWIGMIHPNSGGTNYNEKFKGKGTLTVDKSSSTAYMQLSSLTSDDSAVYYCVTSQATWFAYWGQGTLVTVSAASTKGPSVFPLAPSSKSTSGGTAALGCLVKDYFPEPVTVSWNSGALTSGVHTFPAVLQSSGLYSLSSVVTVPSSSLGTQTYICNVNHKPSNTKVDKKVEPKSCDKTHTCPPCPAPELLGPSVFLFPPKPKDTLMISRTPEVTCVVVDVSHEDPEVKFNWYVDGVEVHNAKTKPREEQYNSTYRVVSVLTVLHQDWLNGKEYKCKVSNKALPAPIEKTISKAKGQPREPQVYTLPPSREEMTKNQVSLTCLVKGFYPSDIAVEWESNGQPENNYKTTPPVLDSDGSFFLYSKLTVDKSRWQQGNVFSCSVMHEALHNHYTQKSLSLSPG light: ENVLTQSPAIMSVSPGEKVTMTCRASSSVSSSYLHWYQQKSGASPKFWIYSTSNLASGVPARFSGSGSGTSYSLTISSVEAEDAATYYCQHYSGYPLTFGAGTKLELRRTVAAPSVFIFPPSDEQLKSGTASVVCLLNNFYPREAKVQWKVDNALQSGNSQESVTEQDSKDSTYSLSSTLTLSKADYEKHKVYACEVTHQGLSSPVTKSFNRGECGGGGSGGGGSGGGGSGGGGSEVQLVESGGGLVQPGGSLRLSCAASGFTFTNYGLHWVRQAPGKGLEWVSSISPSGGVTYYRDSVKGRFTISRDNSKNTLYLQMNSLRAEDTAVYYCAKPFLGWGGANWIAHWGQGTLVTVSSGGGGSGGGGSGGGGSGGGGSDIQMTQSPSSLSASVGDRVTITCLASEDISNDLAWYQQKPGKAPKLLIYFVDRLLDGVPSRFSGSGSGTDFTLTISSLQPEDFATYYCQQSYKYPPTFGQGTKLEIK",binds
6,"Ly815 (bispecific antibody, human IgG1, kappa, Ly387 HC (IgG1 mutated Fc) + Ly387 LC-Ly253 scFv VL-VH) heavy: QVQLQQPGAELVKPGASVKLSCKASGYTFTSYWMHWVKQRPGQGLEWIGMIHPNSGGTNYNEKFKGKGTLTVDKSSSTAYMQLSSLTSDDSAVYYCVTSQATWFAYWGQGTLVTVSAASTKGPSVFPLAPSSKSTSGGTAALGCLVKDYFPEPVTVSWNSGALTSGVHTFPAVLQSSGLYSLSSVVTVPSSSLGTQTYICNVNHKPSNTKVDKKVEPKSCDKTHTCPPCPAPELLGPSVFLFPPKPKDTLMISRTPEVTCVVVDVSHEDPEVKFNWYVDGVEVHNAKTKPREEQYNSTYRVVSVLTVLHQDWLNGKEYKCKVSNKALPAPIEKTISKAKGQPREPQVYTLPPSREEMTKNQVSLTCLVKGFYPSDIAVEWESNGQPENNYKTTPPVLDSDGSFFLYSKLTVDKSRWQQGNVFSCSVMHEALHNHYTQKSLSLSPG light: not shown",binds
